To fix the notation:
B1: Farletuzumab (antibody, V domains shown)
VH: EVQLVESGGGVVQPGRSLRLSCSASGFTFSGYGLSWVRQAPGKGLEWVAMISSGGSYTYYADSVKGRFAISRDNAKNTLFLQMDSLRPEDTGVYFCARHGDDPAWFAYWGQGTPVTVSS
VL: DIQLTQSPSSLSASVGDRVTITCSVSSSISSNNLHWYQQKPGKAPKPWIYGTSNLASGVPSRFSGSGSGTDYTFTISSLQPEDIATYYCQQWSSYPYMYTFGQGTKVEIKR
B2: 11F8 Fab (Fab, V domains shown)
VH: QVQLVQSGAEVKKPGSSVKVSCKASGGTFSSYAISWVRQAPGQGLEWMGGIIPIFGTANYAQKFQGRVTITADKSTSTAYMELSSLRSEDTAVYYCARAVFYRAWYSFDYWGQGTTVTVSS
VL: DIQMTQSPSTLSASVGDRVTITCRASQSISSWLAWYQQKPGKAPKLLIYDASSLESGVPSRFSGSGSGTEFTLTISSLQPDDFATYYCQQYTSPPPTFGQGTKVEIK
notes: bacterial Fab
B3: 5D9 Fab (Fab, V domains shown)
VH: QVQLVQSGAEVKKPGASVKVSCKASGYTFTSYYMHWVRQAPGQGLEWMGIINPSGGSTSYAQKFQGRVTMTRDTSTSTVYMELSSLRSEDTAVYYCARSYIDMDYWGQGTLVTVSS
VL: EIVLTQSPGTLSLSPGERATLSCRASQSVSSSYLAWYQQKPGQAPRLLIYGASSRATGIPDRFSGSGSGTDFTLTISRLEPEDFAVYYCQQDNWSPTFGQGTKVEIK
notes: bacterial Fab
B4: 6B6 Fab (Fab, V domains shown)
VH: B3 VH with I101V
VL: B3 VL with N93I
notes: bacterial Fab
B5: 15B6 Fab (Fab, V domains shown)
VH: QVQLVQSGAEVKKPGASVKVSCKASGYTFTSYYMHWVRQAPGQGLEWMGIINPSGGSTSYAQKFQGRVTMTRDTSTSTVYMELSSLRSEDTAVYYCARNYYIGIVPFDYWGQGTLVTVSS
VL: QAVVTQEPSLTVSPGGTVTLTCGSSTGAVTTSNYANWVQEKPGQAFRGLIGGTNKRAPGTPARFSGSLLGGKAALTLSGAQPEDEAEYYCALWYSNLWVFGGGTKLTVL
notes: bacterial Fab
B6: 21A5 Fab (Fab, V domains shown)
VH: not shown
VL: B5 VL
notes: bacterial Fab
B7: 16D5 Fab (Fab, V domains shown)
VH: not shown
VL: B5 VL
notes: bacterial Fab
B8: 18D3 Fab (Fab, V domains shown)
VH: QVQLVQSGAEVKKPGASVKVSCKASGYTFTSYYMHWVRQAPGQGLEWMGIINPSGGSTSYAQKFQGRVTMTRDTSTSTVYMELSSLRSEDTAVYYCARNYYTGGSSAFDYWGQGTLVTVS
VL: B5 VL
notes: bacterial Fab
B9: 21D1 Fab (Fab, V domains shown)
VH: B5 VH with I102V, I104V, V105S
VL: B5 VL
notes: bacterial Fab
B10: 16F12 Fab (Fab, V domains shown)
VH: B5 VH with Y100F, Y101T, I102V, G103L, I104R
VL: B5 VL
notes: bacterial Fab
B11: 21G8 Fab (Fab, V domains shown)
VH: not shown
VL: B5 VL
notes: bacterial Fab

Positions count from the first letter of the chain named.

For one test, the target named is T1, recombinant biotinylated monomeric Fc fusion of cynomolgus Folate Receptor 1 (cy FolR1 ECD-AcTev-Fcknob-Avi … (cynomolgus, UniProt P0DOX5 223-449 = IgG part, biotin on the C-terminal Avi tag)).
T1 construct: also called cyFolR1-Fc; cyno FolR1
The test can be described thus: SPR Biacore, avidity (bivalent, apparent KD), antigen-Fc on SA chip. As to the method: (§1) Binding of FolR1 binders as IgG or in the T-cell bispecific format to different recombinant folate receptors (human FolR1, 2 and 3, murine FolR1 and cynomolgus FolR1; all as Fc fusions) was assessed by surface plasmon resonance (SPR). All SPR experiments were performed on a Biacore T200 at 25° C. with HBS-EP as running buffer (0.01 M HEPES pH 7.4, 0.15 M NaCl, 3 mM EDTA, 0.005% Surfactant P20, Biacore, Freiburg/Germany).
Recombinant biotinylated monomeric Fc fusions of human, cynomolgus and murine Folate Receptor 1 (FolR1-Fc) were directly coupled on a SA chip using the standard coupling instruction (Biacore, Freiburg/Germany). The immobilization level was about 300-400 RU. The anti-FolR1 IgGs or T cell bispecifics were passed at a concentration range from 2.1 to 500 nM with a flow of 30 μL/minutes through the flow cells over 180 seconds. The dissociation was monitored for 600 seconds. Bulk refractive index differences were corrected for by subtracting the response obtained on reference flow cell immobilized with recombinant biotinylated IL2 receptor Fc fusion. […] The binding curves resulting from the bivalent binding of the IgGs or T cell bispecifics were approximated to a 1:1 Langmuir binding and fitted with that model (which is not correct, but gives an idea of the avidity). The apparent avidity constants for the interactions were derived from the rate constants of the fitting using the Bia Evaluation software (GE Healthcare).
As for B1, the Kd amounted to 0.65 nM.

Another test concerns the target T1, recombinant biotinylated monomeric Fc …. The test can be described thus: SPR Biacore, affinity (monovalent), antibody captured via anti-Fab. The method, then:
as §1
For affinity measurement, direct coupling of around 6000-7000 resonance units (RU) of the anti-human Fab specific antibody (Fab capture kit, GE Healthcare) was performed on a CM5 chip at pH 5.0 using the standard amine coupling kit (GE Healthcare). Anti-FolR1 IgGs or T cell bispecifics were captured at 20 nM with a flow rate of 10 μl/min for 20 or 40 sec, the reference flow cell was left without capture. Dilution series (6.17 to 500 nM or 12.35 to 3000 nM) of human or cyno Folate Receptor 1 Fc fusion were passed on all flow cells at 30 μl/min for 120 or 240 sec to record the association phase. The dissociation phase was monitored for 240 s and triggered by switching from the sample solution to HBS-EP. The chip surface was regenerated after every cycle using a double injection of 60 sec 10 mM Glycine-HCl pH 2.1 or pH 1.5. Bulk refractive index differences were corrected for by subtracting the response obtained on the reference flow cell 1. The affinity constants for the interactions were derived from the rate constants by fitting to a 1:1 Langmuir binding using the Bia Evaluation software (GE Healthcare).
Consider B1, for which the Kd was found to be 67.3 nM.

Another test addresses T2, recombinant biotinylated monomeric Fc fusion of murine Folate Receptor 1 (mu FolR1 ECD-AcTev-Fcknob-Avitag … (murine, UniProt P0DOX5 223-449 = IgG part, biotin on the C-terminal Avi tag)).
T2 construct: also called muFolR1-Fc; murine FolR1
Nature of the test: SPR ProteOn, Fab analyte on immobilized antigen-Fc. As to the method:
Immobilization of antigens (ligand): Recombinant antigens were diluted with PBST (10 mM phosphate, 150 mM sodium chloride pH 7.4, 0.005% Tween 20) to 10 μg/ml, then injected at 30 μl/minute in vertical orientation. Injection of analytes: For ‘one-shot kinetics’ measurements, injection direction was changed to horizontal orientation, two-fold dilution series of purified Fab (varying concentration ranges) were injected simultaneously along separate channels 1-5, with association times of 150 or 200 s, and dissociation times of 200 or 600 s, respectively. Buffer (PBST) was injected along the sixth channel to provide an “in-line” blank for referencing. Association rate constants (kₒₙ) and dissociation rate constants (koff) were calculated using a simple one-to-one Langmuir binding model in ProteOn Manager v3.1 software by simultaneously fitting the association and dissociation sensorgrams. The equilibrium dissociation constant (KD) was calculated as the ratio koff/kₒₙ.
Take B2: the Kd stood at 1200 nM.

Regarding B3, the binding result is given as “no binding”.

B4: the binding result is listed as “no binding”.

For a further test, the target named is T3, recombinant biotinylated monomeric Fc fusion of human Folate Receptor 2 (hu FolR2 ECD-AcTev-Fcknob-Avi tag … (human, UniProt P0DOX5 223-449 = IgG part, biotin on the C-terminal Avi tag)).
T3 construct: also called FolR2-Fc
Nature of the test: SPR ProteOn, Fab analyte on immobilized antigen-Fc. The method, then: (§2) Immobilization of antigens (ligand): Recombinant antigens were diluted with PBST (10 mM phosphate, 150 mM sodium chloride pH 7.4, 0.005% Tween 20) to 10 μg/ml, then injected at 30 μl/minute in vertical orientation. Injection of analytes: For ‘one-shot kinetics’ measurements, injection direction was changed to horizontal orientation, two-fold dilution series of purified Fab (varying concentration ranges) were injected simultaneously along separate channels 1-5, with association times of 200 s, and dissociation times of 600 s. Buffer (PBST) was injected along the sixth channel to provide an “in-line” blank for referencing. Association rate constants (kₒₙ) and dissociation rate constants (koff) were calculated using a simple one-to-one Langmuir binding model in ProteOn Manager v3.1 software by simultaneously fitting the association and dissociation sensorgrams. The equilibrium dissociation constant (KD) was calculated as the ratio koff/kₒₙ.
For B5, the binding result is “no binding”.

On to B6, for which the binding result is recorded as “no binding”.

As to B7, the binding result is “no binding”.

For B8, the binding result was “no binding”.

B9: the binding result is reported as “no binding”.

For the molecule B10, the binding result was “no binding”.

A further test has as its target T2, recombinant biotinylated monomeric Fc …. The test can be described thus: SPR ProteOn, Fab analyte on immobilized antigen-Fc. This is another data set of the same source. The method, then: as §2
B5: the binding result is given as “no binding”.

On to B6, for which the binding result is “no binding”.

For B7, the binding result is given as “no binding”.

On to B11, for which the binding result is reported as “no binding”.

Regarding B10, the binding result is on record as “no binding”.

In the next test the target is T4, recombinant biotinylated monomeric Fc fusion of human Folate Receptor 3 (hu FolR3 ECD-AcTev-Fcknob-Avi tag … (human, UniProt P0DOX5 223-449 = IgG part, biotin on the C-terminal Avi tag)).
T4 construct: also called FolR3-Fc
Nature of the test: SPR ProteOn, Fab analyte on immobilized antigen-Fc. The method, then: as §2
Turning to B5, the binding result is on record as “no binding”.

As for B7, the binding result is reported as “no binding”.

Take B8: the binding result is “no binding”.

Consider B9, for which the binding result is “no binding”.

Take B10: the binding result is on record as “no binding”.

A further test has as its target T1, recombinant biotinylated monomeric Fc …. The test can be described thus: SPR ProteOn, Fab analyte on immobilized antigen-Fc. The method, then:
as §2
For the molecule B5, the Kd came out at 13.9 nM.

As to B8, the Kd turned out to be 40.2 nM.

In the case of B9, the Kd came to 32.1 nM.

For the molecule B10, the Kd is 90.9 nM.

Another test addresses T5, recombinant biotinylated monomeric Fc fusion of human Folate Receptor 1 (huFolR1 ECD-AcTev-Fcknob-Avi tag … (human, UniProt P0DOX5 223-449 = IgG part, biotin on the C-terminal Avi tag)).
T5 construct: also called huFolR1-Fc; human FolR1-Fc
Nature of the test: SPR ProteOn, Fab analyte on immobilized antigen-Fc. As to the method:
as §2
On to B5, for which the Kd is 19.1 nM.

Consider B8, for which the Kd worked out at 93.6 nM.

With B9, the Kd came to 62.6 nM.

As to B10, the Kd amounted to 68 nM.

These data come from patent publication US20220220224A1 (Hoffmann-La Roche, published 2022).
